Here are results for two molecules from patent US20210156867A1 (YEDA RESEARCH AND DEVELOPMENT, published 2021).

The target of test [1] is T1, recombinant human B-cell lymphoma protein 2 alpha His-Tag (Bcl-2) (human, UniProt P10415 1-211, limits assumed).
T1 construct: In the assay it was in complex with the Ni-NTA sensor compound 5; also called His-Bcl-2; not shown: His-tag
The test can be described thus: fluorescence displacement assay: emission of the His-Bcl-2-compound 5 sensor complex (200 nM) after adding 800 nM protein.

In test [2] the target is T1, recombinant human B-cell lymphoma …. The experiment in a line: fluorescence displacement assay: emission of the His-Bcl-2-compound 5 sensor complex (200 nM) after adding 800 nM peptide.
Description: Fluorescence measurements were performed in triplicate. The emission intensities before the addition of each protein were normalized to 100*14 (FIG. 27b).
For test [3], the target named is T2, mouse recombinant His-calmodulin, calcium-bound (mouse, UniProt P0DP26 1-149).
T2 construct: also called His-CaM(Ca^2+); His-CaM(Ca^+2)
The experiment in a line: SPR, His-CaM immobilised on CM5 chip, analyte pre-incubated with 0.3 mM CaCl2. On the technique in general: In SPR one partner is held on a chip, and binding of the other changes the refractive index at the surface.

T1 sequence (P10415 1-211 limits assumed): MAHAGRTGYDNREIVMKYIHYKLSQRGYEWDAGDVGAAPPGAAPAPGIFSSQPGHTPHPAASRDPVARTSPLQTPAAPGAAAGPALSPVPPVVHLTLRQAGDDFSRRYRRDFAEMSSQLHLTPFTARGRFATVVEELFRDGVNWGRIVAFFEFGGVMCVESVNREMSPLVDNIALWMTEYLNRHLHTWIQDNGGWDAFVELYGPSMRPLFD

B1: GST-P1 (enzyme, human, UniProt P09211 1-210, looked up)
GST-P1 subunit: MPPYTVVYFPVRGRCAALRMLLADQGQSWKEEVVTVETWQEGSLKASCLYGQLPKFQDGDLTLYQSNTILRHLGRTLGLYGKDQQEAALVDMVNDGVEDLRCKYISLIYTNYEAGKDDYVKALPGQLKPFETLLSQNQGGKTFIVGDQISFADYNLLDLLLIHEVLAPGCLDAFPLLSAYVGRLSARPKLKAFLASPEYVNLPINGNGKQ
notes: recombinant; also called human recombinant GST-P1-1
Take B1: in test [1], the binding result is given as “no binding (tested: 800 nM)”. Broadly, the Kd is the equilibrium constant for the complex coming apart. Consider KRRWKKNFIAVSAANRFKKISSSGAL (peptide, UniProt P07313 578-603, looked up, check before use), for which the binding result in test [2] is listed as “no binding (tested: 800 nM)”. Besides, the Kd in test [3] worked out at 8.8 nM.
